Source: the supplement of paper PMC11246515
± gives the standard deviation of the averaged measurements.

Assay: total protein half-life in vivo (active degradation + dilution); higher = more stable protein
[1] = wild type E. coli NCM3722, growth: C-lim chemostat, doubling time 3 h
[2] = wild type E. coli NCM3722, growth: N-lim chemostat, doubling time 12 h
[3] = E. coli NCM3722 delta-clpP delta-lon delta-hslV, growth: N-lim chemostat, doubling time 6 h
[4] = E. coli NCM3722 delta-clpP, growth: N-lim chemostat, doubling time 6 h
[5] = E. coli NCM3722 delta-hslV, growth: N-lim chemostat, doubling time 6 h
[6] = E. coli NCM3722 delta-lon, growth: N-lim chemostat, doubling time 6 h
[7] = E. coli NCM3722 delta-smpB, growth: N-lim chemostat, doubling time 6 h
[8] = wild type E. coli NCM3722, growth: C-lim chemostat, doubling time 6 h
[9] = wild type E. coli NCM3722, growth: C-lim chemostat, doubling time 12 h
[10] = wild type E. coli NCM3722, growth: N-lim chemostat, doubling time 6 h
[11] = wild type E. coli NCM3722, growth: P-lim chemostat, doubling time 6 h
[12] = wild type E. coli NCM3722, growth: P-lim chemostat, doubling time 12 h

Sequence | total protein half-life in vivo [1] [h] | total protein half-life in vivo [2] [h] | total protein half-life in vivo [3] [h] | total protein half-life in vivo [4] [h] | total protein half-life in vivo [5] [h] | total protein half-life in vivo [6] [h] | total protein half-life in vivo [7] [h] | total protein half-life in vivo [8] [h] | total protein half-life in vivo [9] [h] | total protein half-life in vivo [10] [h] | total protein half-life in vivo [11] [h] | total protein half-life in vivo [12] [h]
MTNTWNRLALLIFAVLSLLVAGELQAGVVVGGTRFIFPADRESISILLTNTSQESWLINSKINRPTRWAGGEASTVPAPLLAAPPLILLKPGTTGTLRLLRTESDILPVDRETLFELSIASVPSGKVENQSVKVAMRSVFKLFWRPEGLPGDPLEAYQQLRWTRNSQGVQLTNPTPYYINLIQVSVNGKALSNVGVVPPKSQRQTSWCQAIAPCHVAWRAINDYGGLSAKKEQNLP | 2.87 | 3.48 |  |  |  |  |  |  |  |  |  | 
MTPEHLPTEQYEAQLAEKVVRLQSMMAPFSDLVPEVFRSPVSHYRMRAEFRIWHDGDDLYHIIFDQQTKSRIRVDSFPAASELINQLMTAMIAGVRNNPVLRHKLFQIDYLTTLSNQAVVSLLYHKKLDDEWRQEAEALRDALRAQNLNVHLIGRATKTKIELDQDYIDERLPVAGKEMIYRQVENSFTQPNAAMNIQMLEWALDVTKGSKGDLLELYCGNGNFSLALARNFDRVLATEIAKPSVAAAQYNIAANHIDNVQIIRMAAEEFTQAMNGVREFNRLQGIDLKSYQCETIFVDPPRSGLDSETEKMVQAYPRILYISCNPETLCKNLETLSQTHKVERLALFDQFPYTHHMECGVLLTAK |  | 11.3 ± 2.8 | 6.08 ± 1.6 | 5.19 ± 0.62 | 4.85 ± 0.33 | 5.53 ± 0.082 | 5.35 ± 0.35 | 6.89 ± 0.74 | 12.6 ± 2.2 | 4.83 ± 0.21 | 5.56 ± 0.39 | 13.8 ± 1.9
MTPGEVRRLYFIIRTFLSYGLDELIPKMRITLPLRLWRYSLFWMPNRHKDKLLGERLRLALQELGPVWIKFGQMLSTRRDLFPPHIADQLALLQDKVAPFDGKLAKQQIEAAMGGLPVEAWFDDFEIKPLASASIAQVHTARLKSNGKEVVIKVIRPDILPVIKADLKLIYRLARWVPRLLPDGRRLRPTEVVREYEKTLIDELNLLRESANAIQLRRNFEDSPMLYIPEVYPDYCSEGMMVMERIYGIPVSDVAALEKNGTNMKLLAERGVQVFFTQVFRDSFFHADMHPGNIFVSYEHPENPKYIGIDCGIVGSLNKEDKRYLAENFIAFFNRDYRKVAELHVDSGWVPPDTNVEEFEFAIRTVCEPIFEKPLAEISFGHVLLNLFNTARRFNMEVQPQLVLLQKTLLYVEGVGRQLYPQLDLWKTAKPFLESWIKDQVGIPALVRAFKEKAPFWVEKMPELPELVYDSLRQGKYLQHSVDKIARELQSNHVRQGQSRYFLGIGATLVLSGTFLLVSRPEWGLMPGWLMAGGLIAWFVGWRKTR [P0A6A0] |  | 12.3 ± 0.45 | 6.52 ± 0.12 | 6.43 ± 0.4 |  | 5.96 ± 0.34 | 5.829 ± 0.037 | 6.626 ± 0.057 | 12.4 ± 1.3 | 6.04 ± 0.33 | 6.6 ± 0.39 | 12.8 ± 0.67
MTPILNHYFARINWSGAAAVNIDTLRALHLKHNCTIPFENLDVLLPREIQLDNQSPEEKLVIARRGGYCFEQNGVFERVLRELGFNVRSLLGRVVLSNPPALPPRTHRLLLVELEEEKWIADVGFGGQTLTAPIRLVSDLVQTTPHGEYRLLQEGDDWVLQFNHHQHWQSMYRFDLCEQQQSDYVMGNFWSAHWPQSHFRHHLLMCRHLPDGGKLTLTNFHFTHYENGHAVEQRNLPDVASLYAVMQEQFGLGVDDAKHGFTVDELALVMAAFDTHPEAGK |  | 5.26 ± 0.66 |  | 2.34 ± 0.39 | 3.1 | 4.618 ± 0.018 | 2.15 ± 0.18 | 2.81 | 4.65 | 3.11 ± 0.3 |  | 3.88
MTPLLELKDIRRSYPAGDEQVEVLKGISLDIYAGEMVAIVGASGSGKSTLMNILGCLDKATSGTYRVAGQDVATLDADALAQLRREHFGFIFQRYHLLSHLTAEQNVEVPAVYAGLERKQRLLRAQELLQRLGLEDRTEYYPAQLSGGQQQRVSIARALMNGGQVILADEPTGALDSHSGEEVMAILHQLRDRGHTVIIVTHDPQVAAQAERVIEIRDGEIVRNPPAIEKVNVTGGTEPVVNTVSGWRQFVSGFNEALTMAWRALAANKMRTLLTMLGIIIGIASVVSIVVVGDAAKQMVLADIRSIGTNTIDVYPGKDFGDDDPQYQQALKYDDLIAIQKQPWVASATPAVSQNLRLRYNNVDVAASANGVSGDYFNVYGMTFSEGNTFNQEQLNGRAQVVVLDSNTRRQLFPHKADVVGEVILVGNMPARVIGVAEEKQSMFGSSKVLRVWLPYSTMSGRVMGQSWLNSITVRVKEGFDSAEAEQQLTRLLSLRHGKKDFFTWNMDGVLKTVEKTTRTLQLFLTLVAVISLVVGGIGVMNIMLVSVTERTREIGIRMAVGARASDVLQQFLIEAVLVCLVGGALGITLSLLIAFTLQLFLPGWEIGFSPLALLLAFLCSTVTGILFGWLPARNAARLDPVDALARE | 3.15 ± 0.084 | 12.6 ± 0.13 | 6.72 ± 0.55 | 6.57 ± 0.25 | 6.77 ± 0.99 | 6.57 ± 1.3 | 5.95 ± 0.35 | 5.92 ± 0.28 | 12.4 ± 0.29 | 6.2 ± 0.35 | 6.45 ± 0.26 | 11.9 ± 0.64
